From publication PMC3447985
Values belong to the substance of their own block, whether it stands above or below them.

Tests used:
Test in all cases: SEC
[1] = target: Human apolipoprotein E4 S94C (human) (UniProt P02649)
[2] = target: Human apolipoprotein E4 W264C (human) (UniProt P02649)
[3] = target: Human apolipoprotein E4 S290C (human) (UniProt P02649)

stoichiometry N [1]: 4
Substance: Human apolipoprotein E4 S94C (from UniProt P02649 19-317) (natural protein)

stoichiometry N [2]: 4
Substance: Human apolipoprotein E4 W264C (from UniProt P02649 19-317) (natural protein)

stoichiometry N [3]: 4
Substance: Human apolipoprotein E4 S290C (from UniProt P02649 19-317) (natural protein)
